Here are results for 1 molecule from publication doi:10.1101/2021.05.05.442822.

This assay addresses H3K9me0 peptide. The assay is described as follows: FP. The settings on record: enzyme; modification not given.

B1: Full-length human G9a with an N-terminal MBP tag (MBP:FL-G9a), Q96KQ7 1-1210 (protein)
chain: AAAAGAAAAAAAEGEAPAEMGALLLEKETRGATERVHGSLGDTPRSEETLPKATPDSLEPAGPSSPASVTVTVGDEGADTPVGATPLIGDESENLEGDGDLRGGRILLGHATKSFPSSPSKGGSCPSRAKMSMTGAGKSPPSVQSLAMRLLSMPGAQGAAAAGSEPPPATTSPEGQPKVHRARKTMSKPGNGQPPVPEKRPPEIQHFRMSDDVHSLGKVTSDLAKRRKLNSGGGLSEELGSARRSGEVTLTKGDPGSLEEWETVVGDDFSLYYDSYSVDERVDSDSKSEVEALTEQLSEEEEEEEEEEEEEEEEEEEEEEEEDEESGNQSDRSGSSGRRKAKKKWRKDSPWVKPSRKRRKREPPRAKEPRGVNGVGSSGPSEYMEVPLGSLELPSEGTLSPNHAGVSNDTSSLETERGFEELPLCSCRMEAPKIDRISERAGHKCMATESVDGELSGCNAAILKRETMRPSSRVALMVLCETHRARMVKHHCCPGCGYFCTAGTFLECHPDFRVAHRFHKACVSQLNGMVFCPHCGEDASEAQEVTIPRGDGVTPPAGTAAPAPPPLSQDVPGRADTSQPSARMRGHGEPRRPPCDPLADTIDSSGPSLTLPNGGCLSAVGLPLGPGREALEKALVIQESERRKKLRFHPRQLYLSVKQGELQKVILMLLDNLDPNFQSDQQSKRTPLHAAAQKGSVEICHVLLQAGANINAVDKQQRTPLMEAVVNNHLEVARYMVQRGGCVYSKEEDGSTCLHHAAKIGNLEMVSLLLSTGQVDVNAQDSGGWTPIIWAAEHKHIEVIRMLLTRGADVTLTDNEENICLHWASFTGSAAIAEVLLNARCDLHAVNYHGDTPLHIAARESYHDCVLLFLSRGANPELRNKEGDTAWDLTPERSDVWFALQLNRKLRLGVGNRAIRTEKIICRDVARGYENVPIPCVNGVDGEPCPEDYKYISENCETSTMNIDRNITHLQHCTCVDDCSSSNCLCGQLSIRCWYDKDGRLLQEFNKIEPPLIFECNQACSCWRNCKNRVVQSGIKVRLQLYRTAKMGWGVRALQTIPQGTFICEYVGELISDAEADVREDDSYLFDLDNKDGEVYCIDARYYGNISRFINHLCDPNIIPVRVFMLHQDLRFPRIAFFSSRDIRTGEELGFDYGDRFWDIKSKYFTCQCGSEKCKHSAEAIALEQSRLARLDPHPELLPELGSLPPVNT
In the case of B1, the Kd is 66 µM.

A word on the Kd: it is a measure of binding affinity in units of concentration.
